Ends that are not written are not given here.
T1: LSALT phage (T7 phage displaying the LSALT peptide LSALTPSPSWLKYKAL) (also: displayed on T7 phage, fused to the coat protein)
T1 construct: The peptide is not naturally occurring; it is the out-of-frame product of Ube2n; also called Ube2n (LSALT) phage; LSALT-bacteriophage
T1 peptide: LSALTPSPSWLKYKAL


Molecular target: T1, LSALT phage (T7 phage displaying the …)
Experiment: biopanning of a combinatorial M13 phage library against LSALT phage immobilized on nitrocellulose
Description: When the LSALT phage was immobilized on nitrocellulose and biopanned against with a combinatorial M13 phage library, the following peptides were isolated as peptides that bind specifically with the LSALT. These peptides provide potential targets for action of LSALT peptides, variants and modifications thereof.

| Binder | binding result |
| --- | --- |
| HLPSIIPTMPYR (also called putative target of LSALT) [HLPSIIPTMPYR (SEQ ID NO: 2)] | binds |
| MNVTPRQ (also called putative target of LSALT) [MNVTPRQ (SEQ ID NO: 11)] | binds |
| TTEHPRK (also called putative target of LSALT) [TTEHPRK (SEQ ID NO: 12)] | binds |
| LGPAHLY (also called putative target of LSALT) [LGPAHLY (SEQ ID NO: 13)] | binds |
| GLHNKTH (also called putative target of LSALT) [GLHNKTH (SEQ ID NO: 14)] | binds |
| LNTQTGK (also called putative target of LSALT) [LNTQTGK (SEQ ID NO: 15)] | binds |
| NERNSWH (also called putative target of LSALT) [NERNSWH (SEQ ID NO: 16)] | binds |
| EQFTNLLDMYTA (also called putative target of LSALT) [EQFTNLLDMYTA (SEQ ID NO: 3)] | binds |
| IPPSYSATLPALR (also called putative target of LSALT) [IPPSYSATLPALR (SEQ ID NO: 4)] | binds |
| EQFTNLLDMTYA (also called putative target of LSALT) [EQFTNLLDMTYA (SEQ ID NO: 5)] | binds |
| HATGTHGLSLSH (also called putative target of LSALT) [HATGTHGLSLSH (SEQ ID NO: 6)] | binds |
| TNITESQQLNWR (also called putative target of LSALT) [TNITESQQLNWR (SEQ ID NO: 7)] | binds |
| FEQKKGT (also called putative target of LSALT) [FEQKKGT (SEQ ID NO: 8)] | binds |
| DNTRVDT (also called putative target of LSALT) [DNTRVDT (SEQ ID NO: 9)] | binds |
| PTLPWKK (also called putative target of LSALT) [PTLPWKK (SEQ ID NO: 10)] | binds |
